Two molecules from PMC8458281, “Computational modeling and experimental validation of the EPI-X4/CXCR4 complex allows rational design of small peptide antagonists” (Communications Biology, 2021) can be followed below.

No end group written: not given here.

One data set relates to zebrafish embryos. Kind of data set: Toxicity assay in zebrafish embryos. The format is in vivo. The settings on record: embryos exposed 24 h from 24 hpf to 3, 30 and 300 µM in E3; scored at 48 hpf for cytotoxicity, developmental toxicity, cardiotoxicity, neurotoxicity; two independent assays, 10 × 3 embryos each. Here is the method: Finally, we evaluated the toxicity of EPI-X4 JM#21 408–414-NH2 in zebrafish embryos, a widely used in vivo model for toxicity studies. We exposed embryos for 24 h starting at 24 h post fertilization (hpf), when most organ systems have already developed and are functional. Transparency of the embryos allows for evaluation by light microscopy not only of mortality, but also of sublethal cytotoxicity (necrosis, lysis), developmental toxicity (developmental delay, malformations), or toxicity affecting specific organ systems, in particular cardiotoxicity (heart edema, reduced circulation), and neurotoxicity (reduced touch escape response).
Wild-type zebrafish embryos were dechorionated at 24 hpf using digestion with 1 mg/ml pronase (Sigma) in E3 medium ([…]). […] At 48 hpf (after 24 h of incubation) embryos were scored in a stereomicroscope for signs of cytotoxicity (lysis and/or necrosis), developmental toxicity (delay and/or malformations), or cardiotoxicity (heart edema and/or reduced or absent circulation). Each embryo was also touched with a needle, and reduced or absent touch responses (escape movements) were evaluated as signs of neurotoxicity if and only if no signs of cytotoxicity were present in the same embryo. […]
T2: severe damage so that other phenotypes cannot be assessed (L3, L4, Nec2)

Data set [1] concerns the target T1, C-X-C motif chemokine receptor 4 (CXCR4) on SupT1 cells (human (endogenous in SupT1), UniProt P61073 1-352).
T1 construct: CXCR4 as expressed on SupT1 cells; source: endogenous, on SupT1 cells
As to the kind of experiment: flow cytometry on cells; 12G5 antibody competition on SupT1 cells; peptides in PBS with APC-conjugated 12G5 at a concentration close to its EC50, 4 °C, 2 h; MFI normalized to PBS control; IC50 by nonlinear regression. The settings on record: one partner purified.

A further data set has as its target CXCR4 E288D (human, UniProt P61073-1 1-352, E288 to Asp). As to the kind of experiment: FACS.
Data set [2] addresses CXCR4 D97E + V112A + L41A (human, UniProt P61073-1 1-352, L41A | D97E | V112A). Kind of data set: FACS. (In general: Flow cytometry measures light scatter and fluorescence of single cells or particles in a stream.)
The target of a further data set is CXCR4 V112A + L41A (human, UniProt P61073-1 1-352, L41A | V112A). Kind of data set: FACS.
The next data set has as its target CXCR4 D97Q (human, UniProt P61073-1 1-352, D97Q). As to the kind of experiment: FACS.
The target in a further data set is CXCR4 L41A (human, UniProt P61073-1 1-352, L41A). As to the kind of experiment: FACS.
Data set [3] has as its target T2, CXCR4 wt (transfected 293T cells) (human, UniProt P61073-1 1-352).
T2 chain: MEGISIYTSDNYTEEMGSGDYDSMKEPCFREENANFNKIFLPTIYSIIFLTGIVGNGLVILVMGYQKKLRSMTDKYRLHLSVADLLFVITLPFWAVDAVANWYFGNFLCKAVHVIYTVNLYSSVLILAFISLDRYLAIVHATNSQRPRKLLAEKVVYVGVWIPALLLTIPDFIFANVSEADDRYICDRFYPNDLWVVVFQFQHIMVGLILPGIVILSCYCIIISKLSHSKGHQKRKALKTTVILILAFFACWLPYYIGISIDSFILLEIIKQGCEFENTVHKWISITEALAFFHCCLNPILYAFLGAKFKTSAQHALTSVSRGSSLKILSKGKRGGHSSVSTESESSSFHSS
Kind of data set: FACS.

A further data set deals with CXCR4 D97E + V112A (human, UniProt P61073-1 1-352, D97E | V112A). As to the kind of experiment: FACS.
Another data set deals with CXCR4 D97E + V112L (human, UniProt P61073-1 1-352, D97E | V112L). As to the kind of experiment: FACS.
For the next data set, the target named is CXCR4 D97S (human, UniProt P61073-1 1-352, D97S). Kind of data set: FACS.
The target in the next data set is CXCR4 D97N (human, UniProt P61073-1 1-352, D97N). Kind of data set: FACS.
The next data set deals with CXCR4 E277A (human, UniProt P61073-1 1-352, E277A). As to the kind of experiment: FACS.
Another data set concerns the target CXCR4 D262A (human, UniProt P61073-1 1-352, D262A). As to the kind of experiment: FACS.
The target in the next data set is CXCR4 D97E (human, UniProt P61073-1 1-352, D97E). Kind of data set: FACS.
For the next data set, the target named is CXCR4 V112L (human, UniProt P61073-1 1-352, V112L). As to the kind of experiment: FACS.
A further data set addresses CXCR4 D97T (human, UniProt P61073-1 1-352, D97T). As to the kind of experiment: FACS.
A further data set addresses CXCR4 E288A (human, UniProt P61073-1 1-352, E288 to Ala). Kind of data set: FACS.
A further data set has as its target CXCR4 V112A (human, UniProt P61073-1 1-352, V112A). As to the kind of experiment: FACS.
The target of the next data set is CXCR4 D187E (human, UniProt P61073-1 1-352, D187E). Kind of data set: FACS.
Chain of CXCR4 D187E (P61073 whole entry D187E): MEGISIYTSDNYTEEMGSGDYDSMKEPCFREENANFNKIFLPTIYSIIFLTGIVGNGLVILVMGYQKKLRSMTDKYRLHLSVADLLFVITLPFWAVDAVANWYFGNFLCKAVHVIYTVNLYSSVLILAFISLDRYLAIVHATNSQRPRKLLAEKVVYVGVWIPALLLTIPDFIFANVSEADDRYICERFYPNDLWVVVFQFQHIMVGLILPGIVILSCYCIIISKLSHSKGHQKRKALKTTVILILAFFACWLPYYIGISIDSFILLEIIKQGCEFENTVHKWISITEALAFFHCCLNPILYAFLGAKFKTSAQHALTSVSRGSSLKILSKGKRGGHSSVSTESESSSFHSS

Chain of CXCR4 L41A (P61073 whole entry L41A): as the sequence (P61073 whole entry D187E) above, with L41A, E187D counted along it
Chain of CXCR4 D97E + V112A (P61073 whole entry D97E/V112A): as the sequence (P61073 whole entry D187E) above, with D97E, V112A, E187D counted along it
Chain of CXCR4 D97E (P61073 whole entry D97E): as the sequence (P61073 whole entry D187E) above, with D97E, E187D counted along it
Chain of CXCR4 E277A (P61073 whole entry E277A): as the sequence (P61073 whole entry D187E) above, with E187D, E277A counted along it
Chain of CXCR4 V112A + L41A (P61073 whole entry L41A/V112A): as the sequence (P61073 whole entry D187E) above, with L41A, V112A, E187D counted along it
Chain of CXCR4 V112L (P61073 whole entry V112L): as the sequence (P61073 whole entry D187E) above, with V112L, E187D counted along it
Chain of CXCR4 E288D (P61073 whole entry E288D): as the sequence (P61073 whole entry D187E) above, with E187D, E288D counted along it
Chain of CXCR4 D97E + V112L (P61073 whole entry D97E/V112L): as the sequence (P61073 whole entry D187E) above, with D97E, V112L, E187D counted along it

Take ILRWSRK-NH2 [JM#21 408–414-NH2]: the “toxicity in zebrafish embryos” value in the data set on zebrafish embryos is reported as “nontoxic even at high concentrations”.

B1: WSC02 (peptide)
peptide: IVRWSKKVPCVS
notes: also called EPI-X4 WSC02; source: synthetic peptide (Fmoc solid-phase synthesis, HPLC-purified)
Turning to B1, the IC50 in [1] is 539 nM; with CXCR4 E288D, 83200 nM; in [2], 5770 nM; in the data set with CXCR4 V112A + L41A it was 4700 nM; in the data set with CXCR4 D97Q, greater than 100000 nM; in the data set with CXCR4 L41A, 1710 nM. The IC50 in [3] came to 1130 nM; in the data set with CXCR4 D97E + V112A, 1690 nM; with CXCR4 D97E + V112L, 2000 nM; in the data set with CXCR4 D97S, 20400 nM; with CXCR4 D97N, 527000 nM; with CXCR4 E277A, 770 nM. The IC50 with CXCR4 D262A is 520 nM; with CXCR4 D97E, 9540 nM; with CXCR4 V112L, 420 nM; in the data set with CXCR4 D97T, 35400 nM; in the data set with CXCR4 E288A, greater than 100000 nM; in the data set with CXCR4 V112A, 670 nM. Also, in the data set with CXCR4 D187E, the IC50 came to 490 nM.

For orientation: IC50 means the midpoint of a concentration-inhibition curve.
